Measured values: patent US20210292396A1
Positions count from the first letter of the chain named.

What was measured:
Test in all cases: cell-based or functional assay
[1] = molecular target: Env of HIV isolate BS208.B1 (clade A) (HIV)
[2] = molecular target: HIV Env of isolate NKU3006.ec1 (HIV)
[3] = molecular target: Env of HIV isolate T253-11 (clade AG) (HIV)
[4] = molecular target: Env of HIV isolate WITO.33 (clade B) (HIV)
[5] = molecular target: HIV Env of isolate 231965.c01 (HIV)
[6] = molecular target: HIV Env of isolate ZM214.15 (HIV)
[7] = molecular target: HIV Env of isolate TZBD.02 (HIV)
[8] = molecular target: Env of HIV isolate Q259.17 (clade A) (HIV)
[9] = molecular target: Env of HIV isolate X2131.C1.B5 (clade G) (HIV)
[10] = molecular target: Env of HIV isolate 0439.v5.c1 (clade A) (HIV)
[11] = molecular target: HIV Env of isolate 00836-2.5 (HIV)
[12] = molecular target: Env of HIV isolate 6785.v5.c14 (clade C) (HIV)
[13] = molecular target: HIV Env of isolate 3337.v2.c6 (HIV)
[14] = molecular target: HIV Env of isolate X1193.c1 (HIV)
[15] = molecular target: HIV Env of isolate MW965.26 (HIV)
[16] = molecular target: Env of HIV isolate CNE5 (clade AE) (HIV)
[17] = molecular target: Env of HIV isolate Bal.01 (clade B) (HIV)
[18] = molecular target: Env of HIV isolate CAAN.A2 (clade B) (HIV)
[19] = molecular target: Env of HIV isolate ZA012.29 (clade C) (HIV)
[20] = molecular target: Env of HIV isolate PVO.04 (clade B) (HIV)
[21] = molecular target: Env of HIV isolate M02138 (clade AE) (HIV)
[22] = molecular target: HIV Env of isolate ZM106.9 (HIV)
[23] = molecular target: Env of HIV isolate CM244.ec1 (clade AE) (HIV)
[24] = molecular target: HIV Env of isolate X2131.C1.B5 (HIV)
[25] = molecular target: Env of HIV isolate ZM214.15 (clade C) (HIV)
[26] = molecular target: HIV Env of isolate P0402.c2.11 (HIV)
[27] = molecular target: HIV Env of isolate ZM55.28a (HIV)
[28] = molecular target: Env of HIV isolate 928-28 (clade AG) (HIV)
[29] = molecular target: Env of HIV isolate 6838.v1.c35 (clade C) (HIV)
[30] = molecular target: Env of HIV isolate 6471.v1.c16 (clade C) (HIV)
[31] = molecular target: Env of HIV isolate P1981.C5.3 (clade G) (HIV)
[32] = molecular target: Env of HIV isolate 45_01dG5 (clade B) (HIV)
[33] = molecular target: Env of HIV isolate TRO.11 (clade B) (HIV)
[34] = molecular target: Env of HIV isolate 3301.v1.c24 (clade AC) (HIV)
[35] = molecular target: Env of HIV isolate CAP210.E8 (clade C) (HIV)
[36] = molecular target: Env of HIV isolate 16845-2.22 (clade C) (HIV)
[37] = molecular target: HIV Env of isolate A03349M1.vrc4a (HIV)
[38] = molecular target: Env of HIV isolate 26191-2.48 (clade C) (HIV)
[39] = molecular target: Env of HIV isolate HO86.8 (clade B) (HIV)
[40] = molecular target: Envelope protein of SVA.MLV (clade NA)
[41] = molecular target: HIV Env of isolate A07412M1.vrc12 (HIV)
[42] = molecular target: HIV Env of isolate CNE19 (HIV)
[43] = molecular target: Env of HIV isolate ZM233.6 (clade C) (HIV)
[44] = molecular target: Env of HIV isolate CH119.10 (clade BC) (HIV)
[45] = molecular target: Env of HIV isolate SO18.18 (clade C) (HIV)
[46] = molecular target: HIV Env of isolate X1632.S2.B10 (HIV)
[47] = molecular target: Envelope protein of SIVmac251.30.SG3 (clade NA)
[48] = molecular target: HIV Env of isolate 6322.v4.c1 (HIV)
[49] = molecular target: HIV Env of isolate DU151.02 (HIV)
[50] = molecular target: Env of HIV isolate 0077.v1.c16 (clade C) (HIV)

B1: ePGT121.18 (ePGT121.18.H1 VH and ePGT121.17.L1 VL) (antibody, V domains shown)
VH: QMQLQESGPGLVKPGETLSLTCSVSGASISSSYWSWLRETPGKGLEWIGYTHHSGDTNYAPSLKSRVHLGLHPSKNQVSLSLTSVTAADTAVYYCARTLHGRRIYGVVAFNEYYTYFYWPTWGKGTQVTVSS
VL: SDISVAPGETVRITCGGESIGSRAVQWYQHRPGQAPRLIIYNNQDRPPGIPERFSGSPDIDFGTTATLTISNVEAGDEATYYCHIWDSRRPTNWELGPGTTLTVL
- IC50, pseudovirus neutralization [1]: > 50 µg/mL
- IC80, pseudovirus neutralization (M1) [2]: > 50 µg/mL
- IC80, pseudovirus neutralization (M2) [2]: > 50 µg/mL
- IC50, pseudovirus neutralization [3]: 0.004 µg/mL
- IC50, pseudovirus neutralization [4]: 0.004 µg/mL
- IC80, pseudovirus neutralization (M1) [5]: > 50 µg/mL
- IC80, pseudovirus neutralization (M2) [5]: > 50 µg/mL
- IC80, pseudovirus neutralization (M1) [6]: 0.053 µg/mL
- IC80, pseudovirus neutralization (M2) [6]: 0.067 µg/mL
- IC80, pseudovirus neutralization (M1) [7]: 0.004 µg/mL
- IC80, pseudovirus neutralization (M2) [7]: 0.006 µg/mL
- IC50, pseudovirus neutralization [8]: > 50 µg/mL
- IC50, pseudovirus neutralization [9]: 0.0009 µg/mL
- IC50, pseudovirus neutralization [10]: 5.67 µg/mL
- IC80, pseudovirus neutralization (M1) [11]: > 50 µg/mL
- IC80, pseudovirus neutralization (M2) [11]: > 50 µg/mL
- IC50, pseudovirus neutralization [12]: 0.002 µg/mL
- IC80, pseudovirus neutralization (M1) [13]: 1.25 µg/mL
- IC80, pseudovirus neutralization (M2) [13]: 1.43 µg/mL
- IC80, pseudovirus neutralization (M1) [14]: 0.004 µg/mL
- IC80, pseudovirus neutralization (M2) [14]: 0.005 µg/mL
- IC80, pseudovirus neutralization (M1) [15]: 0.006 µg/mL
- IC80, pseudovirus neutralization (M2) [15]: 0.004 µg/mL
- IC50, pseudovirus neutralization [16]: 7.18 µg/mL
- IC50, pseudovirus neutralization [17]: 0.002 µg/mL
- IC50, pseudovirus neutralization [18]: 0.002 µg/mL
- IC50, pseudovirus neutralization [19]: 0.002 µg/mL
- IC50, pseudovirus neutralization [20]: 0.003 µg/mL
- IC50, pseudovirus neutralization [21]: > 50 µg/mL
- IC80, pseudovirus neutralization (M1) [22]: 0.003 µg/mL
- IC80, pseudovirus neutralization (M2) [22]: 0.004 µg/mL
- IC50, pseudovirus neutralization [23]: 0.46 µg/mL
- IC80, pseudovirus neutralization (M1) [24]: 0.002 µg/mL
- IC80, pseudovirus neutralization (M2) [24]: 0.003 µg/mL
- IC50, pseudovirus neutralization [25]: 0.018 µg/mL
- IC80, pseudovirus neutralization (M1) [26]: 0.004 µg/mL
- IC80, pseudovirus neutralization (M2) [26]: 0.005 µg/mL
- IC80, pseudovirus neutralization (M1) [27]: 0.014 µg/mL
- IC80, pseudovirus neutralization (M2) [27]: 0.014 µg/mL
- IC50, pseudovirus neutralization [28]: 0.076 µg/mL
- IC50, pseudovirus neutralization [29]: 0.386 µg/mL
- IC50, pseudovirus neutralization [30]: 0.378 µg/mL
- IC50, pseudovirus neutralization [31]: 0.001 µg/mL
- IC50, pseudovirus neutralization [32]: 0.001 µg/mL
- IC50, pseudovirus neutralization [33]: 0.002 µg/mL
- IC50, pseudovirus neutralization [34]: 0.003 µg/mL
- IC50, pseudovirus neutralization [35]: 0.02 µg/mL
- IC50, pseudovirus neutralization [36]: 0.036 µg/mL
- IC80, pseudovirus neutralization (M1) [37]: 0.007 µg/mL
- IC80, pseudovirus neutralization (M2) [37]: 0.011 µg/mL
- IC50, pseudovirus neutralization [38]: 0.003 µg/mL
- IC50, pseudovirus neutralization [39]: > 50 µg/mL
- IC50, pseudovirus neutralization [40]: > 50 µg/mL
- IC80, pseudovirus neutralization (M1) [41]: 0.007 µg/mL
- IC80, pseudovirus neutralization (M2) [41]: 0.006 µg/mL
- IC80, pseudovirus neutralization (M1) [42]: 0.006 µg/mL
- IC80, pseudovirus neutralization (M2) [42]: 0.004 µg/mL
- IC50, pseudovirus neutralization [43]: 0.006 µg/mL
- IC50, pseudovirus neutralization [44]: 0.004 µg/mL
- IC50, pseudovirus neutralization [45]: 0.003 µg/mL
- IC80, pseudovirus neutralization (M1) [46]: > 50 µg/mL
- IC80, pseudovirus neutralization (M2) [46]: > 50 µg/mL
- IC50, pseudovirus neutralization [47]: > 50 µg/mL
- IC80, pseudovirus neutralization (M1) [48]: > 50 µg/mL
- IC80, pseudovirus neutralization (M2) [48]: > 50 µg/mL
- IC80, pseudovirus neutralization (M1) [49]: 0.003 µg/mL
- IC80, pseudovirus neutralization (M2) [49]: 0.003 µg/mL
- IC50, pseudovirus neutralization [50]: > 50 µg/mL

B2: ePGT121.18.17 (ePGT121.18.H17 VH and ePGT121.17.L1 VL) (antibody, V domains shown)
VH: B1 VH with H68T, L69I, H72D
VL: B1 VL
- IC50, pseudovirus neutralization [1]: > 50 µg/mL
- IC80, pseudovirus neutralization [2]: > 50 µg/mL
- IC50, pseudovirus neutralization [3]: 0.025 µg/mL
- IC50, pseudovirus neutralization [4]: 0.015 µg/mL
- IC80, pseudovirus neutralization [5]: > 50 µg/mL
- IC80, pseudovirus neutralization [6]: 0.294 µg/mL
- IC80, pseudovirus neutralization [7]: 0.013 µg/mL
- IC50, pseudovirus neutralization [8]: > 50 µg/mL
- IC50, pseudovirus neutralization [9]: 0.002 µg/mL
- IC50, pseudovirus neutralization [10]: > 50 µg/mL
- IC80, pseudovirus neutralization [11]: > 50 µg/mL
- IC50, pseudovirus neutralization [12]: 0.005 µg/mL
- IC80, pseudovirus neutralization [13]: 1.34 µg/mL
- IC80, pseudovirus neutralization [14]: 0.013 µg/mL
- IC80, pseudovirus neutralization [15]: 0.011 µg/mL
- IC50, pseudovirus neutralization [16]: 47 µg/mL
- IC50, pseudovirus neutralization [17]: 0.003 µg/mL
- IC50, pseudovirus neutralization [18]: 0.004 µg/mL
- IC50, pseudovirus neutralization [19]: 0.005 µg/mL
- IC50, pseudovirus neutralization [20]: 0.009 µg/mL
- IC50, pseudovirus neutralization [21]: > 50 µg/mL
- IC80, pseudovirus neutralization [22]: 0.008 µg/mL
- IC50, pseudovirus neutralization [23]: 7.23 µg/mL
- IC80, pseudovirus neutralization [24]: 0.007 µg/mL
- IC50, pseudovirus neutralization [25]: 0.08 µg/mL
- IC80, pseudovirus neutralization [26]: 0.009 µg/mL
- IC80, pseudovirus neutralization [27]: 0.029 µg/mL
- IC50, pseudovirus neutralization [28]: 0.462 µg/mL
- IC50, pseudovirus neutralization [29]: 0.576 µg/mL
- IC50, pseudovirus neutralization [30]: 1.09 µg/mL
- IC50, pseudovirus neutralization [31]: 0.002 µg/mL
- IC50, pseudovirus neutralization [32]: 0.003 µg/mL
- IC50, pseudovirus neutralization [33]: 0.005 µg/mL
- IC50, pseudovirus neutralization [34]: 0.009 µg/mL
- IC50, pseudovirus neutralization [35]: 0.124 µg/mL
- IC50, pseudovirus neutralization [36]: 0.232 µg/mL
- IC80, pseudovirus neutralization [37]: 0.02 µg/mL
- IC50, pseudovirus neutralization [38]: 0.011 µg/mL
- IC50, pseudovirus neutralization [39]: > 50 µg/mL
- IC50, pseudovirus neutralization [40]: > 50 µg/mL
- IC80, pseudovirus neutralization [41]: 0.011 µg/mL
- IC80, pseudovirus neutralization [42]: 0.014 µg/mL
- IC50, pseudovirus neutralization [43]: 0.017 µg/mL
- IC50, pseudovirus neutralization [44]: 0.013 µg/mL
- IC50, pseudovirus neutralization [45]: 0.004 µg/mL
- IC80, pseudovirus neutralization [46]: > 50 µg/mL
- IC50, pseudovirus neutralization [47]: > 50 µg/mL
- IC80, pseudovirus neutralization [48]: > 50 µg/mL
- IC80, pseudovirus neutralization [49]: 0.005 µg/mL
- IC50, pseudovirus neutralization [50]: > 50 µg/mL

B3: ePGT121.15.H2.L1 (antibody, V domains shown)
VH: B1 VH with Y113W, Y114F, P120E, T121V
VL: B1 VL with T14S, P32A, R37K, S71T, E95V, L96F, P98G
- neutralization (Table 6 value) [5]: 0.285
- neutralization (Table 6 value) [41]: 0.000944
- neutralization (Table 6 value) [42]: 0.000602
